Test results from patent publication US20220251186A1 (TAVOTEK BIOTHERAPEUTICS HONG KONG, published 2022).

Tests used:
[1] = biological target: T1, recombinant mouse FcRn (R&D Systems) (mouse, UniProt Q61559 22-297; P01887 21-119, limits assumed); experiment: ELISA at pH 6.0, 1 µg/mL recombinant mouse FcRn coated, HRP anti-human detection
T1 sequence (looked up) 1: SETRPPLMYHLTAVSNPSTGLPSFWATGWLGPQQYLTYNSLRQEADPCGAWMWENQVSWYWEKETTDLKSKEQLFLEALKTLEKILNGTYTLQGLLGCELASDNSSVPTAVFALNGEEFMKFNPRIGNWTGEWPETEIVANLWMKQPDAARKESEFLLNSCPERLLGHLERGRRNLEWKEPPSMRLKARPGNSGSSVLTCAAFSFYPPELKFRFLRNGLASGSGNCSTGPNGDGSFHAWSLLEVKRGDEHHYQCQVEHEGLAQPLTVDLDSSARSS
T1 sequence (looked up) 2: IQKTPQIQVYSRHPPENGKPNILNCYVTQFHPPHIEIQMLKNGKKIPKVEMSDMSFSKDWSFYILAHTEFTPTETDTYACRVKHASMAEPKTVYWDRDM

Cynomolgus monkey TSLP = biological target: T2, Cynomolgus monkey TSLP (Cynomolgus monkey, UniProt A0A7N9CAT7 29-159); experiment: ELISA, plate coated with cynomolgus monkey TSLP, antibody titrated, OD 450 nm
T2 construct: also called cynomolgus TSLP

[2] = biological target: T3, recombinant human TSLP (R&D Systems) (human, UniProt Q969D9 29-159); experiment: ELISA, plate coated with 1 µg/mL recombinant human TSLP, antibody titrated, HRP-conjugated secondary antibody, OD 450 nm
T3 construct: also called thymic stromal lymphopoietin

[3] = biological target: T3, recombinant human TSLP (R&D Systems); experiment: cell-based or functional assay
[4] = biological target: T3, recombinant human TSLP (R&D Systems); experiment: ELISA, 1 µg/mL recombinant human TSLP coated, HRP anti-mouse detection
mouse TSLP (R&D Systems) = biological target: T4, mouse TSLP (R&D Systems) (mouse, UniProt Q9JIE6 20-140); experiment: ELISA, plate coated with mouse TSLP, antibody titrated, HRP-conjugated anti-mouse secondary antibody, OD 450 nm
T4 sequence (looked up): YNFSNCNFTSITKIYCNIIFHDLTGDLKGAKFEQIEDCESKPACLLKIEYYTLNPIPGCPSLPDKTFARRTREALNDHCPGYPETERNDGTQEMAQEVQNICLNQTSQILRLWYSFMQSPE

B1: TAVO9765 (antibody, human IgG1, kappa, L234A L235A)
heavy: QVQLVQSGAEVKKPGSSVKVSCKASGYTFSSYWVNWVRQAPGQGLEWIGQIYPGDGDTDYAQKFQGRATLTADKSTSTAYMELSSLRSEDTAVYFCARGTYYNNYYGTDYWGQGTTVTVSSASTKGPSVFPLAPSSKSTSGGTAALGCLVKDYFPEPVTVSWNSGALTSGVHTFPAVLQSSGLYSLSSVVTVPSSSLGTQTYICNVNHKPSNTKVDKKVEPKSCDKTHTCPPCPAPEAAGGPSVFLFPPKPKDTLMISRTPEVTCVVVDVSHEDPEVKFNWYVDGVEVHNAKTKPREEQYNSTYRVVSVLTVLHQDWLNGKEYKCKVSNKALPAPIEKTISKAKGQPREPQVYTLPPSREEMTKNQVSLTCLVKGFYPSDIAVEWESNGQPENNYKTTPPVLDSDGSFFLYSKLTVDKSRWQQGNVFSCSVLHEALHSHYTQKSLSLSPGK
light: EIVLTQSPDFQSVTPKEKVTITCSVSSSISSSNLHWYQQKPDQSPKPWIYGTSNLASGVPSRFSGSGSGTDYTLTINSLEAEDAATYYCQQWSSYPLTFGQGTKLEIKRTVAAPSVFIFPPSDEQLKSGTASVVCLLNNFYPREAKVQWKVDNALQSGNSQESVTEQDSKDSTYSLSSTLTLSKADYEKHKVYACEVTHQGLSSPVTKSFNRGEC
notes: also called humanized TAVO202 antibody 202H2/202L4 with human IgG1 Fc (L234A, L235A, M428L, N434S)
With B1 the “fold better potency than TAVO7265” value [1] was roughly 10 fold.

B2: TAVO7265 (antibody, human IgG1, kappa)
heavy: QVQLVQSGAEVKKPGSSVKVSCKASGYTFSSYWVNWVRQAPGQGLEWIGQIYPGDGDTDYAQKFQGRATLTADKSTSTAYMELSSLRSEDTAVYFCARGTYYNNYYGTDYWGQGTTVTVSSASTKGPSVFPLAPSSKSTSGGTAALGCLVKDYFPEPVTVSWNSGALTSGVHTFPAVLQSSGLYSLSSVVTVPSSSLGTQTYICNVNHKPSNTKVDKKVEPKSCDKTHTCPPCPAPEFEGGPSVFLFPPKPKDTLMISRTPEVTCVVVAVSHEDPEVKFNWYVDGVEVHNAKTKPREEQYNSTYRVVSVLTVLHQDWLNGKEYKCKVSNKALPAPIEKTISKAKGQPREPQVYTLPPSREEMTKNQVSLTCLVKGFYPSDIAVEWESNGQPENNYKTTPPVLDSDGSFLLYSKLTVDKSRWQQGNVFSCSVMHEALHNHYTQKSLSLSPGK
light: EIVLTQSPDFQSVTPKEKVTITCSVSSSISSSNLHWYQQKPDQSPKPWIYGTSNLASGVPSRFSGSGSGTDYTLTINSLEAEDAATYYCQQWSSYPLTFGQGTKLEIKRTVAAPSVFIFPPSDEQLKSGTASVVCLLNNFYPREAKVQWKVDNALQSGNSQESVTEQDSKDSTYSLSSTLTLSKADYEKHKVYACEVTHQGLSSPVTKSFNRGEC
notes: also called humanized TAVO202 antibody 202H2/202L4 with human IgG1 Fc (L234F, L235E, D265A, F405L)
B2: no binding (tested: 1 µg/mL) (Cynomolgus monkey TSLP).

B3: TAVO6264 (antibody, human IgG2, kappa)
heavy: QVQLVQSGAEVKKPGSSVKVSCKASGYTFSSYWVNWVRQAPGQGLEWIGQIYPGDGDTDYAQKFQGRATLTADKSTSTAYMELSSLRSEDTAVYFCARGTYYNNYYGTDYWGQGTTVTVSSASTKGPSVFPLAPCSRSTSESTAALGCLVKDYFPEPVTVSWNSGALTSGVHTFPAVLQSSGLYSLSSVVTVPSSNFGTQTYTCNVDHKPSNTKVDKTVERKCCVECPPCPAPPVAGPSVFLFPPKPKDTLMISRTPEVTCVVVDVSHEDPEVQFNWYVDGVEVHNAKTKPREEQFNSTFRVVSVLTVVHQDWLNGKEYKCKVSNKGLPAPIEKTISKTKGQPREPQVYTLPPSREEMTKNQVSLTCLVKGFYPSDIAVEWESNGQPENNYKTTPPMLDSDGSFFLYSKLTVDKSRWQQGNVFSCSVMHEALHNHYTQKSLSLSPGK
light: DIQLTQSPSFLSASVGDRVTITCSVSSSISSSNLHWYQQKPGKAPKPWIYGTSNLASGVPSRFSGSGSGTEYTLTISSLQPEDAATYYCQQWSSYPLTFGQGTKLEIKRTVAAPSVFIFPPSDEQLKSGTASVVCLLNNFYPREAKVQWKVDNALQSGNSQESVTEQDSKDSTYSLSSTLTLSKADYEKHKVYACEVTHQGLSSPVTKSFNRGEC
notes: Human IgG2 Fc; also called humanized TAVO202 antibody 202H2/202L3 with human IgG2 Fc
For B3, the “EC50 (read off the curve)” value [2] was roughly 2 ng/mL.

B4: TAVO7264 (antibody, human IgG1, kappa)
heavy: QVQLVQSGAEVKKPGSSVKVSCKASGYTFSSYWVNWVRQAPGQGLEWIGQIYPGDGDTDYAQKFQGRATLTADKSTSTAYMELSSLRSEDTAVYFCARGTYYNNYYGTDYWGQGTTVTVSSASTKGPSVFPLAPSSKSTSGGTAALGCLVKDYFPEPVTVSWNSGALTSGVHTFPAVLQSSGLYSLSSVVTVPSSSLGTQTYICNVNHKPSNTKVDKKVEPKSCDKTHTCPPCPAPEFEGGPSVFLFPPKPKDTLMISRTPEVTCVVVAVSHEDPEVKFNWYVDGVEVHNAKTKPREEQYNSTYRVVSVLTVLHQDWLNGKEYKCKVSNKALPAPIEKTISKAKGQPREPQVYTLPPSREEMTKNQVSLTCLVKGFYPSDIAVEWESNGQPENNYKTTPPVLDSDGSFLLYSKLTVDKSRWQQGNVFSCSVMHEALHNHYTQKSLSLSPGK
light: DIQLTQSPSFLSASVGDRVTITCSVSSSISSSNLHWYQQKPGKAPKPWIYGTSNLASGVPSRFSGSGSGTEYTLTISSLQPEDAATYYCQQWSSYPLTFGQGTKLEIKRTVAAPSVFIFPPSDEQLKSGTASVVCLLNNFYPREAKVQWKVDNALQSGNSQESVTEQDSKDSTYSLSSTLTLSKADYEKHKVYACEVTHQGLSSPVTKSFNRGEC
notes: also called humanized TAVO202 antibody 202H2/202L3 with human IgG1 Fc (L234F, L235E, D265A, F405L)
B4: no binding (tested: 1 µg/mL) (Cynomolgus monkey TSLP).

B5: TAVO6265 (antibody, human IgG2, kappa)
heavy: QVQLVQSGAEVKKPGSSVKVSCKASGYTFSSYWVNWVRQAPGQGLEWIGQIYPGDGDTDYAQKFQGRATLTADKSTSTAYMELSSLRSEDTAVYFCARGTYYNNYYGTDYWGQGTTVTVSSASTKGPSVFPLAPCSRSTSESTAALGCLVKDYFPEPVTVSWNSGALTSGVHTFPAVLQSSGLYSLSSVVTVPSSNFGTQTYTCNVDHKPSNTKVDKTVERKCCVECPPCPAPPVAGPSVFLFPPKPKDTLMISRTPEVTCVVVDVSHEDPEVQFNWYVDGVEVHNAKTKPREEQFNSTFRVVSVLTVVHQDWLNGKEYKCKVSNKGLPAPIEKTISKTKGQPREPQVYTLPPSREEMTKNQVSLTCLVKGFYPSDIAVEWESNGQPENNYKTTPPMLDSDGSFFLYSKLTVDKSRWQQGNVFSCSVMHEALHNHYTQKSLSLSPGK
light: EIVLTQSPDFQSVTPKEKVTITCSVSSSISSSNLHWYQQKPDQSPKPWIYGTSNLASGVPSRFSGSGSGTDYTLTINSLEAEDAATYYCQQWSSYPLTFGQGTKLEIKRTVAAPSVFIFPPSDEQLKSGTASVVCLLNNFYPREAKVQWKVDNALQSGNSQESVTEQDSKDSTYSLSSTLTLSKADYEKHKVYACEVTHQGLSSPVTKSFNRGEC
notes: Human IgG2 Fc; also called humanized TAVO202 antibody 202H2/202L4 with human IgG2 Fc
B5 was tested, and the “EC50 (read off the curve)” value [2] was roughly 2 ng/mL.

B6: mouse monoclonal anti-human TSLP antibody TAVO202 (antibody, V domains shown)
VH: QVQLQQSGAELVRPGSSVKISCKASGYTFSSYWVNWVKQRPGQGLEWIGQIYPGDGDTDYNGKFKGKATLTADKSSSTAYMQLSSLTSEDSAVYFCARGTYYNNYYGTDYWGQGTSVTVSS
VL: EIVLTQSPALMAASPGEKVTITCSVSSSISSSNLHWYQQKSETSPKPWIYGTSNLASGVPVRFSGSGSGTSYSLTISSMEAEDAATYYCQQWSSYPLTFGGGTKLEIK
notes: Mouse monoclonal antibody from hybridoma screening; also called mouse anti-TSLP antibody TAVO202
In the case of B6, the “IC50, neutralization of TSLP-driven STAT5 luciferase reporter gene expression (10 ng/mL human TSLP)” value [3] is reported as 20 ng/mL, the “IC50, neutralization of TSLP-driven proliferation of transfected BAF3 cells (0.5 ng/mL human TSLP)” value [3] is reported as 6.6 ng/mL and the EC50 [4] is reported as 2.4 ng/mL. B6: no binding (tested: about 5 µg/mL) (mouse TSLP (R&D Systems)).
